Changes are numbered by the printed parent chain.
Tests used:
Assay in all cases: cleavage_in_vitro
[1] = tested on: T1, SspI (Sphaerotilus species); details: NEB4, 37 C, Mg2+; FI NEB1-3: 64, 16, 32
T1 sequence: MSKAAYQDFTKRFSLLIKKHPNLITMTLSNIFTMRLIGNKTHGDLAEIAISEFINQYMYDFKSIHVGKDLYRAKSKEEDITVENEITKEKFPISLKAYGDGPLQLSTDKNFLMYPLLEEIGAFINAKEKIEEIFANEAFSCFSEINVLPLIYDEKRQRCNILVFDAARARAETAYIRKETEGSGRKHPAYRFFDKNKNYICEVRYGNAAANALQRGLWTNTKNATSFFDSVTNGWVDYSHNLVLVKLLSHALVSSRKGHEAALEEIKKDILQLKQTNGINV

[2] = tested on: T2, SbfI (Streptomyces species Bf-61); details: NEB4, 37 C, Mg2+; FI NEB1-3: 32, 8, 8
T2 sequence: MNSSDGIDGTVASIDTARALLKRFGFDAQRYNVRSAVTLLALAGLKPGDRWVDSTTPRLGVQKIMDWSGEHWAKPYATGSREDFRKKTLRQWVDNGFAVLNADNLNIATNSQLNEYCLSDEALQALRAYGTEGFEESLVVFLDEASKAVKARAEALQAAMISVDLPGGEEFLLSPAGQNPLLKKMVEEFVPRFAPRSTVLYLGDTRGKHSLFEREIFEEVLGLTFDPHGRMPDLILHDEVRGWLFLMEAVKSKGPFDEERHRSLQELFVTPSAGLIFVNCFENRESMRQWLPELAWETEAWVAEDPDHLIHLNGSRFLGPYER

[3] = tested on: T3, SspI-HF Y98F (Sphaerotilus species); details: NEB4, 37 C, Mg2+; FI NEB1-3: >=4000, 120, >=32
T3 sequence: T1 sequence with Y98F

[4] = tested on: T4, BsmBI-HF N185Y/R232A (Bacillus stearothermophilus); details: NEB4, 55 C, Mg2+; listed as BsmBI; FI NEB1-3: 2, >=500, >=64
T4 sequence: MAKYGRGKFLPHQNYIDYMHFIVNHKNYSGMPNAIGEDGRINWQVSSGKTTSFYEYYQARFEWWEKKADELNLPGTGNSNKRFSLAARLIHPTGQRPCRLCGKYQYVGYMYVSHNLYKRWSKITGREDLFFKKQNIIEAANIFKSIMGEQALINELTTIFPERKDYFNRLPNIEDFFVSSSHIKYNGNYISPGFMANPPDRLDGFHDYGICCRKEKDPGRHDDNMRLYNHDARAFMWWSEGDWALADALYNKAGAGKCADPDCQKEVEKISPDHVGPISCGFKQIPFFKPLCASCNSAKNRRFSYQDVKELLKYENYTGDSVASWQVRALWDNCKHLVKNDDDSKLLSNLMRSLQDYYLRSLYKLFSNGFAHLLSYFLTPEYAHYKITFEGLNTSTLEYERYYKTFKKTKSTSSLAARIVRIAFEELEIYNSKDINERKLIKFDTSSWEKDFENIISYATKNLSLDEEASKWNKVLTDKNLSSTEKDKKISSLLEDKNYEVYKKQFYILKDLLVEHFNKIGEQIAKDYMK

[5] = tested on: T5, BspQI (Bacillus sphaericus); details: NEB4, 50 C, Mg2+; FI NEB1-3: 2, 16, 32
T5 sequence: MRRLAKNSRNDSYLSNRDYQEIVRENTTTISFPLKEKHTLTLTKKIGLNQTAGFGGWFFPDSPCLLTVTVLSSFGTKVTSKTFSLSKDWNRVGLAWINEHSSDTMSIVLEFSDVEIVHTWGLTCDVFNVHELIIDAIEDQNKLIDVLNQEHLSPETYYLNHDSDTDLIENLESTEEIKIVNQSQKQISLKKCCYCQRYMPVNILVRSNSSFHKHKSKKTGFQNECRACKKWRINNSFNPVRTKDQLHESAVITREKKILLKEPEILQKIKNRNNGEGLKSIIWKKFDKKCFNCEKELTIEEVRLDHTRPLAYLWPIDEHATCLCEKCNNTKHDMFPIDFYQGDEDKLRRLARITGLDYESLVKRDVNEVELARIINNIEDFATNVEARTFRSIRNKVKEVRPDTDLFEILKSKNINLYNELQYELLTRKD

[6] = biological target: T6, BamHI (Bacillus amyloliquefaciens) (UniProt P23940); details: NEB4, 37 C, Mg2+; FI NEB1-3: 4, 4, 32
T6 sequence: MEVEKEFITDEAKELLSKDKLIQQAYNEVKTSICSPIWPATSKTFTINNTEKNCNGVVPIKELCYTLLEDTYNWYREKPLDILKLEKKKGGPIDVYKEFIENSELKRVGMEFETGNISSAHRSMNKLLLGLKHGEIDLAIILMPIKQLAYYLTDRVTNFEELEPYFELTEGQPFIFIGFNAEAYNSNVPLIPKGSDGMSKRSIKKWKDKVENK

[7] = tested on: T7, SbfI-HF K251A (Streptomyces species Bf-61); details: NEB4, 37 C, Mg2+; FI NEB1-3: 1000, 120, 8
T7 sequence: T2 sequence with K251A

lambda phage DNA
activity (fidelity index) [1]: 16 | activity (fidelity index) [2]: 8 | activity (fidelity index) [3]: 500 | activity (fidelity index) [4]: > 500 | activity (fidelity index) [5]: 4 | activity (fidelity index) [6]: 4 | activity (fidelity index) [7]: 250

— patent US20130115678
